Measurements reported in article PMC12152899, “Disulfide-mediated tetramerization of TRAP1 fosters its antioxidant and pro-neoplastic activities” (Redox Biology, 2025).
Positions count from the first letter of the chain named. Names and notes keep the numbering of the source.

Key:
[1] = molecular target: the molecule itself; assay: non-reducing SDS-PAGE; purified recombinant TRAP1, DTT removed, 150 mM NaCl, 50 mM TRIS, pH 7.5, 37 °C, 100 μM H2O2 for 30 min (1 nM to 100 μM in Fig. 1B); disulfide-linked band above 170 kDa; Coomassie or stain-free
[2] = molecular target: the molecule itself; assay: SEC; Superdex 200 HR 10/30, 20 mM TRIS, 150 mM NaCl, pH 7; recombinant TRAP1 incubated with 100 μM H2O2; additional peak beside the dimer; dimers to tetramer

B1: recombinant human TRAP1 C501S (natural protein, UniProt Q12931 60-704, looked up)
chain: STQTAEDKEEPLHSIISSTESVQGSTSKHEFQAETKKLLDIVARSLYSEKEVFIRELISNASDALEKLRHKLVSDGQALPEMEIHLQTNAEKGTITIQDTGIGMTQEELVSNLGTIARSGSKAFLDALQNQAEASSKIIGQFGVGFYSAFMVADRVEVYSRSAAPGSLGYQWLSDGSGVFEIAEASGVRTGTKIIIHLKSDCKEFSSEARVRDVVTKYSNFVSFPLYLNGRRMNTLQAIWMMDPKDVREWQHEEFYRYVAQAHDKPRYTLHYKTDAPLNIRSIFYVPDMKPSMFDVSRELGSSVALYSRKVLIQTKATDILPKWLRFIRGVVDSEDIPLNLSRELLQESALIRKLRDVLQQRLIKFFIDQSKKDAEKYAKFFEDYGLFMREGIVTATEQEVKEDIAKLLRYESSALPSGQLTSLSEYASRMRAGTRNIYYLSAPNRHLAEHSPYYEAMKKKDTEVLFCFEQFDELTLLHLREFDKKKLISVETDIVVDHYKEEKFEDRSPAAECLSEKETEELMAWMRNVLGSRVTNVKVTLRLDTHPAMVTVLEMGAARHFLRMQQLAKTQEERAQLLQPTLEINPRHALIKKLNQLRASEPGLAQLLVDQIYENAMIAAGLVDDPRAMVGRLNELLVKALERH
notes: Cloned in pET-26b(+); same construct as m1 with the mutation; source: E. coli BL21(DE3), purified (Ni-NTA)
binding result [1]: binds

B2: recombinant human TRAP1 C261S (natural protein, UniProt Q12931 60-704, looked up)
chain: B1 chain with C202S, S442C
notes: as for B1
binding result [1]: binds

B3: recombinant human TRAP1 wild type, lacking the mitochondrial import sequence (natural protein, UniProt Q12931 60-704, looked up)
chain: B1 chain with S442C
notes: Cloned in pET-26b(+); Dimer by gel filtration with DTT; an additional tetramer peak after H2O2; also called WT TRAP1; TRAP1 WT; source: E. coli BL21(DE3), purified (Ni-NTA)
stoichiometry N [2]: 4

B4: recombinant human TRAP1 C573R (natural protein, UniProt Q12931 60-704, looked up)
chain: B1 chain with S442C, C514R
notes: as for B1
binding result [1]: binds

B5: recombinant human TRAP1 C501S/C527A double mutant (natural protein, UniProt Q12931 60-704, looked up)
chain: B1 chain with C468A
notes: Cloned in pET-26b(+); same construct as m1 with the mutations; source: E. coli BL21(DE3), purified (Ni-NTA)
binding result [1]: binds

B6: recombinant human TRAP1 C527A (natural protein, UniProt Q12931 60-704, looked up)
chain: B1 chain with S442C, C468A
notes: as for B1
binding result [1]: binds
